Target: the molecule itself
Test: cryo-electron tomography with subtomogram averaging

B1: H+-ATPase Pma1 (natural protein, UniProt Q6FXU5 1-902, looked up)
chain: MSDVESNNEKPPQDVYEDEEMSEDDDIDALIEELQSHHGMGDDDDSEDEGHHTGSARVVPEEYLQTDPSYGLTSDEVAHRRKKYGLNQMADERESMIVKFVMFFVGPIQFVMEAAAILAAGLSDWVDFGVICGLLMLNACVGFIQEFQAGSIVDELKKTLANVAVVIRDGQLVEVPANEVVPGDILQLEDGTIIPADGRLVTENCFLQVDQSAITGESLAVDKGYGDQTFSSSTVKRGEAFMVVTATGDNTFVGRAAALVNKASGGQGHFTEVLNGIGILLLVLVIVTLLGVWAACFYRTDNIVKILRFTLGITIIGVPVGLPAVVTTTMAVGAAYLAKKQAIVQKLSAIESLAGVEILCSDKTGTLTKNKLSLHEPYTVEGVSADDLMLTACLAASRKKKGLDAIDKAFLKSLINYPKAKDALTKYKVIEFHPFDPVSKKVTAVVESPEGERIVCVKGAPLFVLKTVEEDHPIPEDVHENYENKVAELASRGFRALGVARKRGEGHWEILGVMPCMDPPRDDTAETVNEARRLGLRVKMLTGDAVGIAKETCRQLGLGTNIYNAERLGLGGGGDMPGSELADFVENADGFAEVFPQHKYKVVEILQNRGYLVAMTGDGVNDAPSLKKADTGIAVEGASDAARSAADIVFLAPGLSAIIDALKTSRQIFHRMYSYVVYRIALSLHLELFLGLWIIILNHSLDIELIVFIAIFADVATLAIAYDNAPFSQTPVKWNLPRLWGMSIILGIVLAIGTWICLTTMFLPRGGIIQNFGSIDGVLFLQISLTENWLIFVTRAVGPFWSSIPSWQLAGAVFAVDIIATMFTLFGWFSQNWTDIVTVVKIYIWSIGVFCVLGGFYYIMSESVVFDRLMNGKPLKEEKSTRSVEDFLAAMQRVSTQHEKEN
stoichiometry N: 6

Source: publication doi:10.1101/2024.05.29.596243 (bioRxiv, 2024)
